Patent US9266964

Biological target: T1, human plasma kallikrein (human, UniProt P03952 20-390; P03952 391-638)
T1 construct: two disulfide-linked chains; also called pKal; human pKal
Assay: ELISA; signal on coated biotinylated human plasma kallikrein divided by signal on streptavidin; Fab
Text: Abbreviations used: "T/B" is the ELISA signal obtained using of the target (biotinylated plasma kallikrein) divided by the ELISA signal of the "background" (streptavidin); both of which were coated on microtiter plates. "nd" is not determined. The symbol "q" refers to the amber suppressible stop codon (TAG), which is translated as glutamine (Q) in strains of E. coli such as the TG1 cells that were used to express the Fab fragments.

T1 sequence (P03952 20-390, chain 1 of 2): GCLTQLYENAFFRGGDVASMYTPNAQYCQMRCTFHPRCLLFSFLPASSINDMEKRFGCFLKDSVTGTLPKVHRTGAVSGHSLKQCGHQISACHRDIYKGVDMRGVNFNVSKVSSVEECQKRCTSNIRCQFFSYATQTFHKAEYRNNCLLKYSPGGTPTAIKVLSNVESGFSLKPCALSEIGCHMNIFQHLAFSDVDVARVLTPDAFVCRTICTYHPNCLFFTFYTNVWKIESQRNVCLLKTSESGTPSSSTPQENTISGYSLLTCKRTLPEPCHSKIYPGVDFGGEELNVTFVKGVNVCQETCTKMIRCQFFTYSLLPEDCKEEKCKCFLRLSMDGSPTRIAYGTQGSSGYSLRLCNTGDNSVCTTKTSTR
T1 sequence (P03952 391-638, chain 2 of 2): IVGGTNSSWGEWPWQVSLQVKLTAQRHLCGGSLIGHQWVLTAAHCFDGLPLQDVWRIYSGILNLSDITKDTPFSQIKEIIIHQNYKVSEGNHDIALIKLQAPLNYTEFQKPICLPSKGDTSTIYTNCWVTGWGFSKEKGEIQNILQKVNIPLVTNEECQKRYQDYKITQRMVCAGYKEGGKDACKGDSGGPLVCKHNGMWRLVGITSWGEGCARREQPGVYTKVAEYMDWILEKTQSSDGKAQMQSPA

| Binder | Human pKal ELISA (T/B) |
| --- | --- |
| M12-B04 (Fab, V domains shown, Fab fragment (E. coli TG1); printed HC runs into the start of CH1) VH: EVQLLESGGGLVQPGGSLRLSCAASGFTFSLYSMYWVRQAPGKGLEWVSRIRPSGGGTVYADSVKGRFTISRDNSKNTLYLQMNSLRAEDTAVYYCARDPLYSSGDVWGQGTTVTVSS VL: DIQMTQSPSSLSASVGDRVTITCRASQGIRNDLGWYQHKPGKAPKLLIYAASILQSGVPSRFSGTASGTDFTLTISSLQPEDFATYFCLQDYEYPLTFGGGTKLDIK | 18 T/B (target signal / background signal) |
| M12-E06 (Fab, V domains shown, Fab fragment (E. coli TG1); printed HC runs into the start of CH1) VH: EVQLLESGGGLVQPGGSLRLSCAASGFTFSQYKMLWVRQAPGKGLEWVSGIGPSGGLTAYADSVKGRFTISRDNSKNTLYLQMNSLRAEDTAVYYCARAPWFGELGMDVWGQGTTVTVSS VL: DIQMTQSPSSLSASVGDRVSITCRASQSISTYLNWYQHKPGKAPTLLIYGAFSLQSGVPSRFSGSGSGTDFALTISSLQPEDFATYYCQQSHSTPPTFGQGTRVEIK | 48 T/B (target signal / background signal) |
| M27-A10 (Fab, V domains shown, Fab fragment (E. coli TG1); printed HC runs into the start of CH1) VH: EVQLLESGGGLVQPGGSLRLSCAASGFTFSWYRMDWVRQAPGKGLEWVSSIWPSGGLTSYADSVKGRFTISRDNSKNTLYLQMNSLRAEDTAVYYCARGWAPGGDAFDIWGQGTMVTVSS VL: DIQMTQSPSSLSASVGDRVTITCRASQSISAYLNWYQQKPGKAPQLLMYGVGSLQSGVPSRFSGSGSGTDFTLTISSLQPEDFATYFCQQGYTTPVTFGGGTKVEIK | 3.2 T/B (target signal / background signal) |
| M27-B12 (Fab, V domains shown, Fab fragment (E. coli TG1); printed HC runs into the start of CH1) VH: EVQLLESGGGLVQPGGSLRLSCAASGFTFSWYQMMWVRQAPGKGLEWVSSISPSGGITEYADSVKGRFTISRDNSKNTLYLQMNSLRAEDTAVYYCARDRSSGWYYYGMDVWGQGTTVTVSS VL: QYELTQPPAVSVSPGQTATITCSGDKLGDEYAAWYQQKPGQSPVLVIYQDRKRPSGIPERFSGSNFGNTATLTITGTQVMDEADYYCQAWGKRNVVFGGGTKLTVL | 2.3 T/B (target signal / background signal) |
| M27-F11 (Fab, V domains shown, Fab fragment (E. coli TG1); printed HC runs into the start of CH1) VH: EVQLLESGGGLVQPGGSLRLSCAASGFTFSSYHMMWVRQAPGKGLEWVSSIYPSGGATMYADSVKGRFTISRDNSKNTLYLQMNSLRAEDTAMYYCARDGYHYGDYTYFQHWGQGTLVTVSS VL: DIQMTQSPSFLSASVGDRVTITCRASQGISSYLAWYQQKPGKAPKLLIYAASSLQSGVPSRFSGSGSGTDFTLTISSLQPEDFATYYCQQSYNTLRTFGPGTKVDLK | 10 T/B (target signal / background signal) |
| M27-G01 (Fab, V domains shown, Fab fragment (E. coli TG1); printed HC runs into the start of CH1) VH: EVQLLESGGGLVQPGGSLRLSCAASGFTFSLYRMFWVRQAPGKGLEWVSSIWSSGGPTMYADSVKGRFTISRDNSKNTLYLQMNSLRAEDTAVYYCAREYPSTYYFDYWGQGTLVTVSS VL: DIQMTQSPSSLSASVGDRVTITCRASQSISTYLNWYQQKPGKAPKLLIYGASSLQSGVPSRFSGSGSGTDFTLTISSLQPEDFTIYYCQQSYSDPYTFGQGTKLDIK | 31.4 T/B (target signal / background signal) |
| M27-G04 (Fab, V domains shown, Fab fragment (E. coli TG1); printed HC runs into the start of CH1) VH: EVQLLESGGGLVQPGGSLRLSCAASGFTFSAYYMVWVRQAPGKGLEWVSYISPSGGQTQYADSVKGRFTISRDNSKNTLYLQMNSLRAEDTAVYYCAREAISSSSFDYWGQGTLVTVSS VL: DIQMTQSPSSLSASVGDRVTITCRASQRISYYLTWYQQKPGKVPKLLIYAASSLESGVPSRFSGSGSGTDFTLTISNLQPEDFATYYCQQAFSTPFTFGGGTKVEIK | 4.1 T/B (target signal / background signal) |
| M28-D02 (Fab, V domains shown, Fab fragment (E. coli TG1); printed HC runs into the start of CH1; The LC is printed with an amber codon 'q' (QDIqMTQ), written here as Q) VH: EVQLLESGGGLVQPGGSLRLSCAASGFTFSWYPMQWVRQAPGKGLEWVSYIYPSGGGTDYADSVKGRFTISRDNSKNTLYLQMNSLRAEDTATYYCATSSGWLGDAFDIWGQGTMVTVSS VL: DIQMTQSPSSLSASEGDMVTITCRTSRRIGTYLNWYQQKPGKAPKLLIYGASSLQSGVPSRFSGSGSGTDFTLTVSSLQPEDVGTYYCQQSFSSPWTFGPGTKVEIK | 3.7 T/B (target signal / background signal) |
| M28-D12 (Fab, V domains shown, Fab fragment (E. coli TG1); printed HC runs into the start of CH1) VH: EVQLLESGGGLVQPGGSLRLSCAASGFTFSWYTMHWVRQAPGKGLEWVSVIYPSGGPTSYADSVKGRFTISRDNSKNTLYLQMNSLRAEDTATYYCARDGSGSYLGFDYWGQGTLVTVSS VL: DIQMTQSPSSLSASVGDRVTITCRASQSIATYLNWYQQKPGRAPKLLIYAASSLQSGVPSRFVGGGSGSGTHFTLTISSLQPEDFATYYCQQSYSTRETFGQGTKVEIK | 41.6 T/B (target signal / background signal) |
| M28-E01 (Fab, V domains shown, Fab fragment (E. coli TG1); printed HC runs into the start of CH1) VH: EVQLLESGGGLVQPGGSLRLSCAASGFTFSSYPMGWVRQAPGKGLEWVSRISSSGGMTIYADSVKGRFTISRDNSKNTLYLQMNSLRAEDTAVYYCARDDWNVGMDVWGQGTTVTVSS VL: DIQMTQSPSSLSASVGDRVTITCRASQSISSYLNWYQQKPGKAPKLLIYAASSLQSGVPSKFSGSGSGTDYTLTISSLQPEDFATYYCQQTYTTPWTFGQGTKVEIK | 41 T/B (target signal / background signal) |
| M28-E11 (Fab, V domains shown, Fab fragment (E. coli TG1); printed HC runs into the start of CH1) VH: EVQLLESGGGLVQPGGSLRLSCAASGFTFSLYDMTWVRQAPGKGLEWVSGISSSGGVTIYADSVKGRFTISRDNSKNTLYLQMNSLRAEDTAVYYCARTYYYDSSGYADAFDIWGQGTMVTVSS VL: DIQMTQSPSSVSASVGDRVTINCRASQDISNWLAWYQQKPGKAPNLLIYAASSLQTGAPSRFSGSGSGTDFTLTISSLQPEDFGTYVCQQSYSLPWTFGLGTKVEVR | 29.3 T/B (target signal / background signal) |
| M28-F07 (Fab, V domains shown, Fab fragment (E. coli TG1); printed HC runs into the start of CH1) VH: EVQLLESGGGLVQPGGSLRLSCAASGFTFSDYTMYWVRQAPGKGLEWVSSIVPSGGHTLYADSVKGRFTISRDNSKNTLYLQMNSLRAEDTAVYYCAKDHLSSWYGGFFDYWGQGTLVTVSS VL: DIQMTQSPSSVSASVGDRVTITCRASQGISSWLAWYQQKPGKAPKLLIYATSGLQSGVPSRFSGSGSGTDFTLTISSLQPEDFATYYCQQAKSFPLTFGGGTRVEIK | 33 T/B (target signal / background signal) |
| M29-C07 (Fab, V domains shown, Fab fragment (E. coli TG1); printed HC runs into the start of CH1) VH: EVQLLESGGGLVQPGGSLRLSCAASGFTFSGYDMMWVRQAPGKGLEWVSVISSSGGNTAYADSVKGRFTISRDNSKNTLYLQMNSLRAEDTAVYYCARESSGLYYFDYWGQGTLVTVSS VL: not shown | 5.2 T/B (target signal / background signal) |

The remaining lines, values ahead:

| Human pKal ELISA (T/B) | Binder |
| --- | --- |
| 7 T/B (target signal / background signal) | M12-C09 (Fab, V domains shown, Fab fragment (E. coli TG1); printed HC runs into the start of CH1; tied to M12-C09 by its CDRs; also called M12-009) VH: EVQLLESGGGLVQPGGSLRLSCAASGFTFSSYAMVWVRQAPGKGLEWVSSIGSSGGFTLYADSVKGRFTISRDNSKNTLYLQMNSLRAEDTAVYYCASMNLGGGDAFDIWGQGTMVTVSS VL: DIQMTQSPSSLSASVGDRVTITCRASQSIGIYLNWYHQKPGKAPNLLIYGASSLQSGVPSRFSGSGSGTDFTLTISSLQPGDFATYYCQHSYSTPFTFGGGTKVEIK |
| 8.3 T/B (target signal / background signal) | M12-C10 (Fab, V domains shown, Fab fragment (E. coli TG1); printed HC runs into the start of CH1 and printed LC into the start of the lambda constant region (GQPK)) VH: EVQLLESGGGLVQPGGSLRLSCAASGFTFSDYEMHWVRQAPGKGLEWVSGISPSGGKTQYADSVKGRFTISRDNSKNTLYLQMNSLRAEDTAVYYCARDLKWGGRGSPDWYFDLWGRGTLVTVSS VL: QSALTQPPSVSVSPGQTASITCSGDKLGEKYVSWYQQKPGQSPVVVIYQDNKRPSGIPERFSGSNSGNTATLTISGTQAVDEADYYCQAWDSYTVVFGGGSKLTVLG |
| 9.9 T/B (target signal / background signal) | M12-D10 (Fab, V domains shown, Fab fragment (E. coli TG1); printed HC runs into the start of CH1) VH: EVQLLESGGGLVQPGGSLRLSCAASGFTFSNYPMDWVRQAPGKGLEWVSSISSSGGWTNYADSVKGRFTISRDNSKNTLYLQMNSLRAEDTAVYYCATDTSGSYLGFDYWGQGTLVTVSS VL: not shown |
| 33.1 T/B (target signal / background signal) | M27-B01 (Fab, V domains shown, Fab fragment (E. coli TG1); printed HC runs into the start of CH1) VH: EVQLLESGGGLVQPGGSLRLSCAASGFTFSDYTMWWVRQAPGKGLEWVSSISSSGGITFYADSVKGRFTISRDNSKNTLYLQMNSLRAEDTAVYYCARSADTAMGGAFDIWGQGTMVTVSS VL: not shown |
| 35.9 T/B (target signal / background signal) | M27-E03 (Fab, V domains shown, Fab fragment (E. coli TG1); printed HC runs into the start of CH1) VH: EVQLLESGGGLVQPGGSLRLSCAASGFTFSSYMMHWVRQAPGKGLEWVSGIYPSGGWTDYADSVKGRFTISRDNSKNTLYLQMNSLRAEDTATYYCARLVAGLDAFDIWGQGTMVTVSS VL: not shown |
| 10.5 T/B (target signal / background signal) | M27-F04 (Fab, V domains shown, Fab fragment (E. coli TG1); printed HC runs into the start of CH1) VH: EVQLLESGGGLVQPGGSLRLSCAASGFTFSWYPMTWVRQAPGKGLEWVSSIGPSGGQTIYADSVKGRFTISRDNSKNTLYLQMNSLRAEDTAVYYCTTEYGDYGGGFDPWGQGTLVTVSS VL: not shown |
| 2.2 T/B (target signal / background signal) | M27-G09 (Fab, V domains shown, Fab fragment (E. coli TG1); printed HC runs into the start of CH1) VH: EVQLLESGGGLVQPGGSLRLSCAASGFTFSEYDMAWVRQAPGKGLEWVSYIVSSGGFTSYADSVKGRFTISRDNSKNTLYLQMNSLRAEDTAVYYCTTWAGWIAAADYWGQGTLVTVSS VL: DIQMTQSPSSVSASVGDRITITCRTRQSISNYLNWYQQKPGEPPKLLIFAASSLQSGVPSRFSGSGTGTEFTLTISSLQPEDLAIYYCQQSYDIPFTFGQGTKLEIK |
| 12.4 T/B (target signal / background signal) | M27-H10 (Fab, V domains shown, Fab fragment (E. coli TG1); printed HC runs into the start of CH1) VH: EVQLLESGGGLVQPGGSLRLSCAASGFTFSAYQMAWVRQAPGKGLEWVSVIYSSGGYTDYADSVKGRFTISRDNSKNTLYLQMNSLRAEDTAVYYCARHNWNDGAFDIWGQGTMVTVSS VL: DIQMTQSPSSLSASVGDRVTITCRASQSISNYLNWYQQKPGKAPKFLIYAASSLQSGVPSRFSGSGSGTDFTLSISSLQPEDFATYYCQQSYSTPQTFGQGTKVEMK |
| 19 T/B (target signal / background signal) | M28-A01 (Fab, V domains shown, Fab fragment (E. coli TG1); printed HC runs into the start of CH1) VH: EVQLLESGGGLVQPGGSLRLSCAASGFTFSWYAMHWVRQAPGKGLEWVSGIYSSGGYTKYADSVKGRFTISRDNSKNTLYLQMNSLRAEDTAVYYCARDLSNGDDVFDIWGQGTMVTVSS VL: not shown |
| 2.2 T/B (target signal / background signal) | M28-C03 (Fab, V domains shown, Fab fragment (E. coli TG1); printed HC runs into the start of CH1) VH: EVQLLESGGGLVQPGGSLRLSCAASGFTFSYYQMGWVRQAPGKGLEWVSSIYPSGGMTDYADSVKGRFTISRDNSKNTLYLQMNSLRAEDTAVYYCTRGSPWGDDAFDIWGQGTMVTVSS VL: DIQMTQSPSSLSASVGDRVTITCRASQSINFYLNWYQQKPGKAPKLLIYVASSLESGVPSRFSGSASGTEFTLTISSLQPEDFATYYCLQSYSAPYTFGQGTKVEIT |
